Assay results from PMC10330758 (DNA repair, 2023).

Target: N-terminally his-tagged human DHX9 (human, UniProt Q08211 1-1270)
Experiment: pull-down

N-terminally his-tagged human DHX9, sequence (Q08211 whole entry): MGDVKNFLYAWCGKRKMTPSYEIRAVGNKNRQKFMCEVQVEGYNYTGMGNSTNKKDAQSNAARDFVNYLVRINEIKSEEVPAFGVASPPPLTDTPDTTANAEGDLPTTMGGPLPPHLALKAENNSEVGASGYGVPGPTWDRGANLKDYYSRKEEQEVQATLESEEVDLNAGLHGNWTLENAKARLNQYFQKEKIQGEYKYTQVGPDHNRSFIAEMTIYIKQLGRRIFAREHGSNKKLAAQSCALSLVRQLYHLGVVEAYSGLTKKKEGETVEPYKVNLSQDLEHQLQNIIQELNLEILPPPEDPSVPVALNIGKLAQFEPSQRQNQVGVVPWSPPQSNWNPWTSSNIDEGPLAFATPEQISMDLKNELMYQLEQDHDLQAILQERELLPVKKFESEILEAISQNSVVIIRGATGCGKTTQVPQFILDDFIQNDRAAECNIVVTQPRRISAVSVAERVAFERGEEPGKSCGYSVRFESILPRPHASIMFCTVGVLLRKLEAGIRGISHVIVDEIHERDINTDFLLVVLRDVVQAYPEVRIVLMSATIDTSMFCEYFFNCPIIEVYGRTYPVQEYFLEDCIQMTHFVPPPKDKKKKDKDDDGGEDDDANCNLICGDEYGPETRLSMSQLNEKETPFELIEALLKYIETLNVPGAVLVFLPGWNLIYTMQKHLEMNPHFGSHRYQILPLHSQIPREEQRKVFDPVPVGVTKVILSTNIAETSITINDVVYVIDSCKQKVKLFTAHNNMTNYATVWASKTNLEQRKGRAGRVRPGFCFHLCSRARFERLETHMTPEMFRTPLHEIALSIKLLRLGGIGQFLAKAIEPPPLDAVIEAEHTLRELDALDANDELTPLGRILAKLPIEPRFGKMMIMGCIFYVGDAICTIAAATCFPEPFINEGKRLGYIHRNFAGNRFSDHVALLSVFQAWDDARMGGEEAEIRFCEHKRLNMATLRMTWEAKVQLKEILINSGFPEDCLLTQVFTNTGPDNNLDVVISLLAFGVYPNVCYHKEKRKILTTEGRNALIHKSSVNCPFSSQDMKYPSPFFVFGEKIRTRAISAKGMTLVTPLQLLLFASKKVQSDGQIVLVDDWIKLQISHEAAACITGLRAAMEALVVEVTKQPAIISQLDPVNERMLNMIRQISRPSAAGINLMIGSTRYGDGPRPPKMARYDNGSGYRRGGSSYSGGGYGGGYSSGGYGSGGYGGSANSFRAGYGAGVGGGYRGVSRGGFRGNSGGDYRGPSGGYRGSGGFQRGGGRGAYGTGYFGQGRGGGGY

B1: Un-tagged p125 subunit of Pol δ (enzyme, human, UniProt P28340 1-1107, looked up)
chain: MDGKRRPGPGPGVPPKRARGGLWDDDDAPRPSQFEEDLALMEEMEAEHRLQEQEEEELQSVLEGVADGQVPPSAIDPRWLRPTPPALDPQTEPLIFQQLEIDHYVGPAQPVPGGPPPSRGSVPVLRAFGVTDEGFSVCCHIHGFAPYFYTPAPPGFGPEHMGDLQRELNLAISRDSRGGRELTGPAVLAVELCSRESMFGYHGHGPSPFLRITVALPRLVAPARRLLEQGIRVAGLGTPSFAPYEANVDFEIRFMVDTDIVGCNWLELPAGKYALRLKEKATQCQLEADVLWSDVVSHPPEGPWQRIAPLRVLSFDIECAGRKGIFPEPERDPVIQICSLGLRWGEPEPFLRLALTLRPCAPILGAKVQSYEKEEDLLQAWSTFIRIMDPDVITGYNIQNFDLPYLISRAQTLKVQTFPFLGRVAGLCSNIRDSSFQSKQTGRRDTKVVSMVGRVQMDMLQVLLREYKLRSYTLNAVSFHFLGEQKEDVQHSIITDLQNGNDQTRRRLAVYCLKDAYLPLRLLERLMVLVNAVEMARVTGVPLSYLLSRGQQVKVVSQLLRQAMHEGLLMPVVKSEGGEDYTGATVIEPLKGYYDVPIATLDFSSLYPSIMMAHNLCYTTLLRPGTAQKLGLTEDQFIRTPTGDEFVKTSVRKGLLPQILENLLSARKRAKAELAKETDPLRRQVLDGRQLALKVSANSVYGFTGAQVGKLPCLEISQSVTGFGRQMIEKTKQLVESKYTVENGYSTSAKVVYGDTDSVMCRFGVSSVAEAMALGREAADWVSGHFPSPIRLEFEKVYFPYLLISKKRYAGLLFSSRPDAHDRMDCKGLEAVRRDNCPLVANLVTASLRRLLIDRDPEGAVAHAQDVISDLLCNRIDISQLVITKELTRAASDYAGKQAHVELAERMRKRDPGSAPSLGDRVPYVIISAAKGVAAYMKSEDPLFVLEHSLPIDTQYYLEQQLAKPLLRIFEPILGEGRAEAVLLRGDHTRCKTVLTGKVGGLLAFAKRRNCCIGCRTVLSHQGAVCEFCQPRESELYQKEVSHLNALEERFSRLWTQCQRCQGSLHEDVICTSRDCPIFYMRKKVRKDLEDQEQLLRRFGPPGPEAW
binding result: binds
